# Laboratory results published in the nanobody polyreactivity screen of Harvey et al. (2022).
# Experiment: yeast display, Sf9 membrane polyspecificity reagent, FACS + sequencing; frameworks hold sequencing errors
# In short: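 After 36–48 hours of galactose induction, yeast (Saccharomyces cerevisiae BJ5465) displaying a synthetic nanobody library were stained at 4 °C for 1 hour with 10% biotinylated, detergent-solubilized Sf9 membrane reagent. Streptavidin microbeads enriched the stained cells before FACS sorting into low and high (top ~1%) gates on anti-HA and streptavidin fluorescence. Each clone's polyreactivity label reflects its gate of origin.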
row,Sequence,polyreactivity (PSR sort gate)
1,QVQLVESGGGLVQAGGSLRLSCAASGRIFFYNDMGWYRQAPGKERELVASISSGTSTYYADSVKGRFTISRDNAKNTVYLQMNSLKPEDTAVYYCATGRPWHYSSATYDYWGQGTQVSVSS,low polyreactivity
2,QVQLVESGGGIVQAGGSLRLSCAASGIIFRFYAMGWYRQAPGKERELVARIRSRGGSTYYADSVKGRFTISRDNAKNTVYLQMNSLKPEDTAVYYCAAGAGYPYYWGQGTQVTVSS,high polyreactivity
3,QVQLVESGGGLVQAGGSLRLSCAASGFTFRYYAMGWYRQAPGKEREFVAAIRRSGANTYYADSVKGRFTISRDNAKNTVYLQMNSLKPEDTAVYYCAADKNYYPYKFDYWGQGTQVTVSS,high polyreactivity
4,QVQLVESGGGLVQAGGSLRLSCAASGINFPRYMGWYRQAPGKERELVAAIRWSSDDTNYADSVKGRFTISRDNAKNTVYLQMNSLKPEDTAVYYCAADSYYDRTIQFEFSASTYDYWGQGTQVTVSS,low polyreactivity
5,QVQLVESGGGLVQAGGSLRLSCAASGRIFGINVMGWYRPAPGKERELVARITGRGGRTYYADSVKGRFTMSRDNAKNTVYLQMNSLKPEDTAVYYCAADARYEAYDYWGQGTQVTVSS,high polyreactivity
6,QVQLVESGGGLVQAGGSLRLSCAASGNIISIYAMGWYRQAPGKEREFVASNDWSVASTYYADSVKGRFTISRDNAKNTVYLQMNSLKPEDTAVYYCAAELFGLKYGYYLSYDYWGQGTQVTVSS,high polyreactivity
7,QVQLVESGGGLVQAGGSLRLSCAASGRTFSVYALGWYRPAPGKERELVAGITSGGSTNYADSVKGRFTMSRDNAKNTVYLQMNILKPEDTADYSCASENVYAVFLFVSIGDYWGQGTQETVSS,low polyreactivity
8,QVQLVESGGGLVQAVGSLRLSCAASGGIFRVYAMGWYREAPGKEREMVAAIRWTGGSTYYADSVKGRFKISRDNAKNTVYLQMKRLKPEDTAVYYWAAGRYYSDGSRTIYDYWGQGTQVTVSS,low polyreactivity
9,QVQLVESGGGLVQAGGSLRLSCAASGIILLFYVMGWYRQAPGKERELVASINGRSARTYYADSVKGRFTISRDNAKNTVYLQMNSLKPEDTAVYYCAAGYRYAGNGQIANTGGYYWGQGTQVTVSS,low polyreactivity
10,QVQLVESGGGLVQAGGSLRLSCAASGRTFWPNVMGWYRQAPGKERELVAAITWGDASTYYADSVKGRFTISRDNAKNTVYLQMNSLKPEDTAVYYCAASDYGRTYDYWGQGTQVTVSS,low polyreactivity
11,QVQLVESGGGLVQAGGSLRLSCAASGFTFSFYAMGWYRQAPGKERELVATISSGGSTTYAVSVKGRFTISRDNAKNTVYLQMNSLKPEDTAVYYCNARPGQSGARFGYWGQGTQVTVSS,high polyreactivity
12,QVQLVESGGGLVQAGGSLRLSCAASGFIFTPYAMGWYRQAPGKERELVAAITWRGARTYYADSVKGRFTISRDNAKNTVYLQMNSLKPEDTAVYYCATTFTGYNKEFGYWGQGTQVTVSS,high polyreactivity
13,QDQLVESGGGLVQAGGSLSLSCAASGRTLWRNTMGWYRQAPGKERELVAAITTRGGSTYYADSVKGRFTISRDTAKNTVYLQLNSLKPEDTAVYYCAARTYTGEGSGRFYYWGQGTQVTVSS,high polyreactivity
14,QVQLVESGGGLVQAGGSLRLICAASGLIFYDNMGWYRQAPGKERELVAAISSSGGSTSYADSVKGRFTISRDNAKNTVYLQMNSLKPEDTAVYYCAADSYPAYLGFVGFDYWGQGTQVTVSS,low polyreactivity
15,QVQLVESGGGLVQAGGSLRLSCAASGFIFYVNAMGWYREAPGNERQLVAAISLIGGSTYYADSVKGRFTISRDNAKNTVYLQMNSLIPEDTAVYYCAADPFPGVYDDAIIDYDYWGQGTQVTVSS,low polyreactivity
16,QVQLVESGGGLVQAGGSLRLSCAASGSIFNRYAMGWYRQAPGKERELVAAITWNGGSTYYADSVKGRFTISRDNAKNTVYLQMNSLKPEDTAVYYCNKASLRGSYARYSYDYWGQGTQVTVSS,high polyreactivity
17,QVQLVESGGGLVQAGGSLRLSCAASGRIFLINGMGWYRQAPGKERELVAVITQSGGTYYADSVKGRFTISRDNAKNTVYLQMNSLKPEDTAVYYCAASSYGASRGYWGQGTQVTVSS,high polyreactivity
18,QVQLVESGGGLVQAGGSLRLSCAASGSTFNWNAMGWYRQAPGKERELVAAITSSGARTRYADSVKGRFTISRDNAKNTVYLQMNSLKPEDTAVYYCAAYVYISPSGYYYWGQGTQVTVSS,high polyreactivity
19,QVQLVESGGGLVQAGGSLRLSCAASGSTYYANAMGWYRQAPGKEREFVATISSSDGSTYYADSVKGRFTISRDNAMNTVYLQMYSLKPEDTAVYYCNAADYPEAHSTYYYWGQGTLVTVSS,low polyreactivity
20,QVQLVESGGCLVQAGGSLRYSCAASGRTFRYYGMGWYRQAPGKERELVAAISWSGGSTYYADSVKGRFTISRDNAKNTVYLQMNSLKPEDTAVYYCKVAFHWQRFHHKSAAYDYWGQGTQVTVSS,high polyreactivity
21,QVQLVESGGGLVQAGGSLRLSCAASGFTFISNAMGWYRQAPGKERELVAAISGRGGRTYYADSVKGRFTISRDNAKNTVYLQMNSLKPEDTAVYYCNAVFRKLHYDYWGQGTQVTVSS,high polyreactivity
22,QVQLVESGGGLVQAGGSLRLSCAASGLTFGGYAMGWYRPAPGKERELVAAISWSGGRTYYADSVKGRFTISRDNAKNTVYLQMNSLKPEDTAVYYCAARKLVVNLREDYWGQGTQVTVSS,high polyreactivity

row,Sequence,polyreactivity (PSR sort gate)
1,QVQLVESGGGLVQAGGSLRLSCAASGFIFTSYAMGWYRQAPGKERELVAAITRSGGRTYYADSVKGRFTISRDNAKNTVYLQMNSLKPEDTAVYYCAAVTFYQSPARGYWGQGTQVTVSS,high polyreactivity
2,QVQLVESGVGLVQAGGSLRLSCAASGSTFYSNAMGWNRQAPGKERELVASISWSSGSTYYADSVKGRFTISRDNAKNTVYLQMNSLKPEDTAVYYCATDAGGPYRFGYWGQGTQVTVSS,low polyreactivity
3,QFHLVESGGGLVQAGGSLRLSCAASGSTFWFNVMGWYRQAPGKEREFVAAISSIGGSTYYADSVKGRFTISRDNAKNTVYLQMNSMKPEDTAVYYCAVEVVRVYRYDYWGQGTQVTVTS,low polyreactivity
4,QVQLVESGGGLVQAGGSLRLSCAASGSIFEPNDMGWYRQAPGKEREFVAAISGSGGSTYYADSVKGRFTISRDNAKNTVYLQINSLKPEDTAVYYCANRGKRSYFRTFYYWGHGTQVTVSS,high polyreactivity
5,QVQLVESGGGLVQAGGSLRLSCAASGITFSKYAMGWYRQAPGKERELVASITWSGTSTYYADSVKGRFTISRDNAKNTVYLQMNSLKPEDTAVYYCAAEGWGTFWRPPNGYGYEHDYWGQGTQVTVSS,low polyreactivity
6,QVQLVESGGGLVQAGGSLRLSRASSGVISYRNAMGWYRKAPGKERQLVASITSSGGRTYYADSVKGRFTISRDYATNSVFLQMNSLKPEDTAVYYCADDNWYKKLKRPSAYDYWGQGTQVTVSS,high polyreactivity
7,QVQLVESGGRLVHAGGSLRLSCAASGFTFSDYAMGGYRQEPGKERELVAAISTRGSSTYYADSVKGLFTISRDNEKTTVYLEMNSLKPEDTAVYYCNAVGSYSGYYYWGQGNQVTVSS,high polyreactivity
8,QVHLVESGGGLVQAGGSLRLSCAASGRIFDYYTMGWYRQAPGKERELVAAITWIGGSTYYEDSVKGRFTISRDNAKNTVYLQMNSLKPEDTAVYYCYAEGTALPYRADTVGGYYYWGQGTQVTVSS,low polyreactivity
9,QVQLVESGGGLVQAGGSLRLSCAASGGTFSTYAMGWYRQAPGKEREFVAAITRSGTSTYYADSVKGRFTISRDNAKNTVYLQMNSLKPEDTAVYYCATGEHFYRKLDYWGQGTQVTVSS,low polyreactivity
10,QVQLVESGGGLVQAGGSLRLSCAASGNTFRYYAMGWYRQAPGKERELVAVITTRGGSTNYADSVKGRFTISRDNAKNTVYLQMNSLKPEDTAVYYCAARPGIRSYPPGYGYWGQGTQVTVSS,low polyreactivity
11,QVQLVESGGGLVQAGGSLRLSCAASGSTFSPYALGWYRQAPGKERELVAGITSSGGDTYYADSVKGRFTISRDNAKNTVYLQMNSLKPEDTAVYYCAADWWVLGQLWFDYWGQGTQVTVSS,low polyreactivity
12,QVQLVESGGGLVQAGGSLRLSCAASGRTFRYNAMGWYRQAPGKERELVAAITGGGSTYYADSVKGRFTISRDTAKNTVYLQMNSLKPEDTAVYYCAAANWRRIDYRYRFDYWGQGTQVTVSS,high polyreactivity
13,QVQLVESGGGLVQAGGSLRLSCAASGYTFKAYAMGWYRQAPGKERELVGGISRSGGSTYYADSVKGRFTISRDNAKNTVYLQMNSLKPEDTAVYYCAADSFSWETVVPSVFEFDYWGQGTQGTVSS,low polyreactivity
14,QVQLVESGGGLVQAGGRLRLSSAASGFIFWYYAMGWYRQEPGKERELVAAITSGGNTNYADSVKGRFTISRDNAKNTVYLQMNSLKPEDTAVYYCATGRASGREHDSWGQGTQVTVSS,low polyreactivity
15,QVQLVESGGGLVQAGGSLRLSCAASGGIFGHYGMGWYRQAPGQERELVASISWNGGSTYYADSVKGRFTSSRDNAKNTVYLQMNSLKPEDTAVYYCAARAIWLRYVGYTYYYWGQGTQVTVSS,high polyreactivity
16,QVQLVETGGGIVQAGGSLRLRCAAAGRHCYHNVMGWYRQAPGKERELVAGIRSRGGSTSYADSVKGRFTISRDNSKNTVYLQMNSLKPEDTAVYYCATDTTLWYVLYDYWGQGTQVTVSS,low polyreactivity
17,QVQLVESGGGLVQAGGSLRLSCAASGRIFYSNAMGWYRPAPGKERELVAGITISGGSTYYADSVKGRFTISRDYAKNTVSLQMNSLKPEDTAVYYCNARYLRRGDYGGQGTQVTVSS,low polyreactivity
18,QDQLVESGGGLVQAGGSLRLSCAASGSIFVNNAMGWYRQAPGKERELVAAISRSGGNTYYADSVKGRFTISRDNAKNTVYLQMNSLKPEDTAVYYCAADFRGRYGYWGQGTQVTVSS,high polyreactivity
19,QVQLLESGGGLFQAGGSLRLSCAASGYTFSRNAMGWYRTAPGKERELVAANTGSGGSTYYADSVKGRFTISRDNAQNTVYYQMNSLKPEDTAVYYCATEVKRGYVGFDYWGQGTQVTVSS,low polyreactivity
20,QVQLVESGGGLVQAGGSLRLSCAASGSIFSSYAMGWYRQAPGKERELVAAISGSGGSTFYADSVKGRFTISRDNAKNTVYLQMNSLKPEDTAVYYCAARYYWYGRAGKKHASYYYWGQGTQVTVSS,high polyreactivity
21,QVQLVESGGGLVQAGGSLRLSCAASGFTFTRYAMGWYRQAPGKERELVAAISRIGGSTYYADSVKGRFTISRDNAKNTVYLQMNSLKPEDTAVYYCAASKVPSYDYWGQGTQVTVSS,high polyreactivity
